Measured values reported in publication PMC5774749, “Coiled-coil formation of the membrane-fusion K/E peptides viewed by electron paramagnetic resonance” (PLoS ONE, 2018).
*: point of attachment. MTSL = CC1(C)C=C(CS*)C(C)(C)N1[O]

B1: SL-K (peptide)
peptide: Ac-C(MTSL)KIAALKEKIAALKEKIAALKEGW-NH2
SMILES: CC[C@H](C)[C@H](NC(=O)[C@H](CCCCN)NC(=O)[C@H](CSSCC1=CC(C)(C)N([O])C1(C)C)NC(C)=O)C(=O)N[C@@H](C)C(=O)N[C@@H](C)C(=O)N[C@@H](CC(C)C)C(=O)N[C@@H](CCCCN)C(=O)N[C@@H](CCC(=O)O)C(=O)N[C@@H](CCCCN)C(=O)N[C@H](C(=O)N[C@@H](C)C(=O)N[C@@H](C)C(=O)N[C@@H](CC(C)C)C(=O)N[C@@H](CCCCN)C(=O)N[C@@H](CCC(=O)O)C(=O)N[C@@H](CCCCN)C(=O)N[C@H](C(=O)N[C@@H](C)C(=O)N[C@@H](C)C(=O)N[C@@H](CC(C)C)C(=O)N[C@@H](CCCCN)C(=O)N[C@@H](CCC(=O)O)C(=O)NCC(=O)N[C@@H](Cc1c[nH]c2ccccc12)C(N)=O)[C@@H](C)CC)[C@@H](C)CC
notes: designed coiled-coil zipper peptide K; printed as Ac-C(SL)-(KIAALKE)3-GW-NH2, the repeat written out three times; degree of spin labelling around 80%; also called K-peptide, spin labelled at the N-terminus; Cys-K
B2: E (peptide)
peptide: Ac-EIAALEKEIAALEKEIAALEKGY-NH2
notes: designed coiled-coil zipper peptide E; printed as Ac-(EIAALEK)3-GY-NH2, the repeat written out three times; unlabelled peptide added to K-SL or SL-K in the room-temperature cw-EPR; the details of these samples are in S1 Text; also called E-peptide; peptide E; source: synthetic peptide
B3: K-SL (peptide)
peptide: Ac-KIAALKEKIAALKEKIAALKEGWC(MTSL)-NH2
SMILES: CC[C@H](C)[C@H](NC(=O)[C@H](CCCCN)NC(C)=O)C(=O)N[C@@H](C)C(=O)N[C@@H](C)C(=O)N[C@@H](CC(C)C)C(=O)N[C@@H](CCCCN)C(=O)N[C@@H](CCC(=O)O)C(=O)N[C@@H](CCCCN)C(=O)N[C@H](C(=O)N[C@@H](C)C(=O)N[C@@H](C)C(=O)N[C@@H](CC(C)C)C(=O)N[C@@H](CCCCN)C(=O)N[C@@H](CCC(=O)O)C(=O)N[C@@H](CCCCN)C(=O)N[C@H](C(=O)N[C@@H](C)C(=O)N[C@@H](C)C(=O)N[C@@H](CC(C)C)C(=O)N[C@@H](CCCCN)C(=O)N[C@@H](CCC(=O)O)C(=O)NCC(=O)N[C@@H](Cc1c[nH]c2ccccc12)C(=O)N[C@@H](CSSCC1=CC(C)(C)N([O])C1(C)C)C(N)=O)[C@@H](C)CC)[C@@H](C)CC
notes: designed coiled-coil zipper peptide K; printed as Ac-(KIAALKE)3-GWC(SL)-NH2, the repeat written out three times; degree of spin labelling around 70%; also called K-peptide, spin labelled at the C-terminus
B4: E-SL (peptide)
peptide: Ac-EIAALEKEIAALEKEIAALEKGYC(MTSL)-NH2
SMILES: CC[C@H](C)[C@H](NC(=O)[C@H](CCC(=O)O)NC(C)=O)C(=O)N[C@@H](C)C(=O)N[C@@H](C)C(=O)N[C@@H](CC(C)C)C(=O)N[C@@H](CCC(=O)O)C(=O)N[C@@H](CCCCN)C(=O)N[C@@H](CCC(=O)O)C(=O)N[C@H](C(=O)N[C@@H](C)C(=O)N[C@@H](C)C(=O)N[C@@H](CC(C)C)C(=O)N[C@@H](CCC(=O)O)C(=O)N[C@@H](CCCCN)C(=O)N[C@@H](CCC(=O)O)C(=O)N[C@H](C(=O)N[C@@H](C)C(=O)N[C@@H](C)C(=O)N[C@@H](CC(C)C)C(=O)N[C@@H](CCC(=O)O)C(=O)N[C@@H](CCCCN)C(=O)NCC(=O)N[C@@H](Cc1ccc(O)cc1)C(=O)N[C@@H](CSSCC1=CC(C)(C)N([O])C1(C)C)C(N)=O)[C@@H](C)CC)[C@@H](C)CC
notes: designed coiled-coil zipper peptide E; printed as Ac-(EIAALEK)3-GYC(SL)-NH2, the repeat written out three times; degree of spin labelling around 80%; also called E-peptide, spin labelled at the C-terminus; E-Cys
B5: K (peptide)
peptide: Ac-KIAALKEKIAALKEKIAALKEGW-NH2
notes: designed coiled-coil zipper peptide K; printed as Ac-(KIAALKE)3-GW-NH2, the repeat written out three times; unlabelled peptide added to E-SL in the room-temperature cw-EPR; the details of these samples are in S1 Text; also called K-peptide; peptide K; source: synthetic peptide

Columns and labels:
[1] = target: the molecule itself; experiment: DEER (double electron-electron resonance); frozen solution, 40 K, 9.7 GHz; PBS with 20% (wt) glycerol; total peptide 0.3 mM, mixtures equimolar; same samples as for cw-EPR; Tikhonov regularization
K-SL [2] = target: B3; experiment: continuous-wave EPR at room temperature; solution; rotation-correlation time of the spin-labelled peptide with and without the unlabelled partner; described in S1 Text; conditions: both partners purified
SL-K [3] = target: B1; experiment: as above; conditions: both partners purified
[4] = target: the molecule itself; experiment: continuous-wave EPR of frozen solution; 120 K, 9.7 GHz; PBS with 20% (wt) glycerol; total peptide 0.3 mM, mixtures equimolar; line broadening against free MTSL, distances from simulation of the spectra
SL-K [5] = target: B1; experiment: DEER (double electron-electron resonance); frozen solution, 40 K, 9.7 GHz; PBS with 20% (wt) glycerol; total peptide 0.3 mM, mixtures equimolar; same samples as for cw-EPR; Tikhonov regularization; conditions: both partners purified
K-SL [6] = target: B3; experiment: continuous-wave EPR of frozen solution; 120 K, 9.7 GHz; PBS with 20% (wt) glycerol; total peptide 0.3 mM, mixtures equimolar; line broadening against free MTSL, distances from simulation of the spectra; conditions: both partners purified
E-SL = target: B4; experiment: continuous-wave EPR at room temperature; solution; rotation-correlation time of the spin-labelled peptide with and without the unlabelled partner; described in S1 Text; conditions: both partners purified

Binder: B1
binding result [1]: binds

Binder: B2
binding result (K-SL [2]): binds
binding result (SL-K [3]): binds

Binder: B3
binding result [4]: binds

Binder: B4
binding result (SL-K [5]): binds
binding result (K-SL [6]): binds

Binder: B5
binding result (E-SL): binds
